Key:
ERK1/2 = experiment: MAP kinase (ERK1/2) activation in U937 cells, western blotting; format: cell-based, human; settings: 0.5 μg/ml, 10 min, 37° C.
Experimental: U937 cells (αvβ3+, α4β1+) were plated in wells of 96-well plates (10,000 cells/well), and serum-starved for 48 h. After treatment with wt or mutant sPLA2-IIA for 48 h, we measured cell proliferation by MTS assays. […] U937 cells were serum-starved for 24 h, and stimulated with wt and mutant sPLA2-IIA (0.5 μg/ml) for 10 min at 37° C. Cell lysates were analyzed by western blotting with anti-phospho ERK1/2 or anti-ERK1/2 antibodies. The blot is representative of three independent experiments.
(§1) Cell proliferation and MAP kinase activation K562 cells and human monocytic lymphoma U937 cells were maintained in RPM11640 medium supplemented with 10% FCS. Cells were plated in 96-well plates (1×10^4 cells/well), and serum-starved for 48 h at 37° C. in 5% CO2 atmosphere. Cells were then treated with or without sPLA2-IIA in medium without serum for 48 h. Cell proliferation was determined by MTS assays using the Aqueous Cell Proliferation Assay Kit (Promega). For MAP kinase activation assays, cells were serum starved in RPMI1640 medium supplemented with 0.4% FCS for 24 h, and stimulated with Wt and mutant sPLA2-IIA (0.5 μg/ml) for 10 min at 37° C. ERK1/2 activation was measured as described (Mori, S. et al., J Biol Chem, in press (2008)).

α4β1 binding to VCAM-1 = target: T1, α4β1 binding to VCAM-1 (Homo sapiens, UniProt P05556+P13612); experiment: Adhesion of U937 cells to VCAM-1 in the presence of sPLA2-IIA; format: cell-based; settings: increasing concentrations of sPLA2-IIA, 1 h, 37° C.
T1 construct: integrin α4β1, a major integrin in U937 cells; endogenous in cells; host or cells: U937
T1 sequence (P13612 34-1032): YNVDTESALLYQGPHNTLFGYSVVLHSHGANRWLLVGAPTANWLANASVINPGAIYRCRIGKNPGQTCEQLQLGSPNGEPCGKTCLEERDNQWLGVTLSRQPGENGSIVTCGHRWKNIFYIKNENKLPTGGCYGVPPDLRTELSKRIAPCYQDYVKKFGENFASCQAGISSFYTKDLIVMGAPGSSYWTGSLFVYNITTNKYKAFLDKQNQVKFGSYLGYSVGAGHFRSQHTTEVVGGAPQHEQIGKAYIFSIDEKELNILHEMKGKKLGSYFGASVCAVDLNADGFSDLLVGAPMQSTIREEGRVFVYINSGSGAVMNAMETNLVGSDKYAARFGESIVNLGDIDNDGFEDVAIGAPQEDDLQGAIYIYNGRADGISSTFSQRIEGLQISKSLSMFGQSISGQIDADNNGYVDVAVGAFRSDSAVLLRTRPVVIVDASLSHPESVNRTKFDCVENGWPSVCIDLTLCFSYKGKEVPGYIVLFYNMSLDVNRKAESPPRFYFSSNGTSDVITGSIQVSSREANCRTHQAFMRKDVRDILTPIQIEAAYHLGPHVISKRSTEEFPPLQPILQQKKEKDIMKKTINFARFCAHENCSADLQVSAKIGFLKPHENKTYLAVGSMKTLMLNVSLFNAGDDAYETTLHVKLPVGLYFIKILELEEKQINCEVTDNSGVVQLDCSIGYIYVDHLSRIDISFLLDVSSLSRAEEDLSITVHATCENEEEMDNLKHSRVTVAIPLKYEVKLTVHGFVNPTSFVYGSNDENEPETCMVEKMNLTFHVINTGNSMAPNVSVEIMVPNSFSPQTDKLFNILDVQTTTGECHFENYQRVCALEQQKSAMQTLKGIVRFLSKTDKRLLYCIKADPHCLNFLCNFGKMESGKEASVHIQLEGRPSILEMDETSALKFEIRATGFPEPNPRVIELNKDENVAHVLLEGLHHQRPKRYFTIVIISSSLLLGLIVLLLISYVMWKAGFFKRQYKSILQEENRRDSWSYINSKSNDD
T1 sequence (P05556 21-798): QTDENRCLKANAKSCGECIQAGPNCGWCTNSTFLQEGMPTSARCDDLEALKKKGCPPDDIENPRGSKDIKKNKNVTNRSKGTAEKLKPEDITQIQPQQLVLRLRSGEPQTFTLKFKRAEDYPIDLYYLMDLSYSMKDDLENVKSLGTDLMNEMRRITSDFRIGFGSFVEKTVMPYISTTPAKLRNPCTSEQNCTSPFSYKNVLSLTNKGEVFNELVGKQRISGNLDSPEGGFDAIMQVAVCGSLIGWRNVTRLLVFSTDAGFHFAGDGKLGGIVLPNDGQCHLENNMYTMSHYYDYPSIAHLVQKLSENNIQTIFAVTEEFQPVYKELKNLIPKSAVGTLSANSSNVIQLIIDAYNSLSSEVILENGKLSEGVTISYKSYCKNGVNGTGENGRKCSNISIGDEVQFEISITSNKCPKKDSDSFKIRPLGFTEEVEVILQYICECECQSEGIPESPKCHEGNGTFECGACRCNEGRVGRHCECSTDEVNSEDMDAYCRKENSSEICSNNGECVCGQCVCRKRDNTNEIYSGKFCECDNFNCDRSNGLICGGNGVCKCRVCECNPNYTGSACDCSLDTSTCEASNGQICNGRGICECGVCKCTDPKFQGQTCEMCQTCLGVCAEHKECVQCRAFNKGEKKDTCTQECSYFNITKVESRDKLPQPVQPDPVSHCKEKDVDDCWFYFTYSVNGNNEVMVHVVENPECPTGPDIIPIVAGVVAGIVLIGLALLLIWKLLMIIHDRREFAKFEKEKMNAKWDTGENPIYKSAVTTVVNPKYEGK
Experimental: (§2) FIG. 5. sPLA2-IIA binding to integrin α4β1. a) Cells expressing recombinant α4β1 adhered to wt sPLA2-IIA better than cells expressing other recombinant integrins. We used transfected K562 cells clonally express different human integrins for adhesion assays. Low background adhesion to BSA was subtracted. […] Wells of 96-well microtiter plate were coated with VCAM-1 and FN-GST, and incubated with U937 cells (1×10^4 cells/plate) in the presence of the increasing concentrations of sPLA2-IIA for 1 h at 37° C. Adherent cells were quantified using endogenous phosphatase after gently rinsing the well to remove unbound cells. Data is shown as means+/−SEM of triplicate experiments. *P=0.0101 and **P<0.0001 by t-test. c) Amino acid sequence in the α4 subunit that is critical for VCAM-1 and CS-1 binding is also critical for sPLA2-IIA binding. CHO cells that clonally express wt or mutant α4 (Irie, A. et al., Embo J, 14(22): 5550-5556 (1995)) were used for adhesion assays. Data is shown as means+/−SEM of triplicate experiments. Similar results were obtained using K562 cells expressing α4 mutants (not shown).
(§3) Other methods We performed docking simulation of interaction between sPLA2-IIA and integrin αvβ3 using the AutoDock3 as previously described (Mori, S. et al., J Biol Chem, in press (2008)). […]

fibronectin domains 8-11 = experiment: Adhesion of U937 cells to the cell-binding domain of fibronectin in the presence of sPLA2-IIA; format: cell-based, human; settings: increasing concentrations of sPLA2-IIA, 1 h, 37° C.
Experimental: as §2, §3

α4-K562 cells = experiment: Proliferation of α4-K562 cells (MTS assay); format: cell-based, human; settings: serum-starved 48 h, stimulated 48 h
Experimental: (§4) Cells were serum-starved for 48 h and stimulated with sPLA2-IIA for 48 h. Cell proliferation was determined by MTS assays. Data is shown as means+/−SEM of triplicate experiments. α4- and αvβ3-K562 cells proliferated faster than mock-K562 cells. […] Serum-starved cells were stimulated with wt or mutant sPLA2-IIA (0.5 μg/ml) for 48 h. Data is shown as means+/−SEM of triplicate experiments. α4-K562 and αvβ3-K562 cells grew faster than mock K562 cells with wt and H47Q sPLA2-IIA (*P<0.05 by t-test).
as §1

[1] = system: mock-transfected K562 cells; experiment: Proliferation of mock-transfected K562 cells (MTS assay); format: cell-based, human; settings: serum-starved 48 h, stimulated 48 h
Experimental: as §4, §1

B1: wt sPLA2-IIA: Secretory phospholipase A2 group IIA, wild type, recombinant from bacteria BL21, refolded (protein)
chain: NLVNFHRMIKLTTGKEAALSYGFYGCHCGVGGRGSPKDATDRCCVTHDCCYKRLEKRGCGTKFLSYKFSNSGSRITCAKQDSCRSQLCECDKAAATCFARNKTTYNKKYQYYSNKHCRGSTPRC
modifications: left off: small tags and cut ends
For B1, the “ERK1/2 activation in U937 cells” value (ERK1/2) was “induced”, the “adhesion of U937 cells to VCAM-1” value (α4β1 binding to VCAM-1) was “suppressed adhesion” and the “cell adhesion to fibronectin domains 8-11” value (fibronectin domains 8-11) was “did not suppress cell adhesion”. The “proliferation of α4-K562 cells” value (α4-K562 cells) was “induced proliferation” and the “proliferation of mock-transfected K562 cells” value [1] was “did not induce proliferation”.
